Laboratory results published in IntAct's records for PubMed 22770221.

B1: 14-3-3 protein epsilon (Rattus norvegicus (Rat)), P62260 (parent)
chain: MDDREDLVYQAKLAEQAERYDEMVESMKKVAGMDVELTVEERNLLSVAYKNVIGARRASWRIISSIEQKEENKGGEDKLKMIREYRQMVETELKLICCDILDVLDKHLIPAANTGESKVFYYKMKGDYHRYLAEFATGNDRKEAAENSLVAYKAASDIAMTELPPTHPIRLGLALNFSVFYYEILNSPDRACRLAKAAFDDAIAELDTLSEESYKDSTLIMQLLRDNLTLWTSDMQGDGEEQNKEALQDVEDENQ
partner: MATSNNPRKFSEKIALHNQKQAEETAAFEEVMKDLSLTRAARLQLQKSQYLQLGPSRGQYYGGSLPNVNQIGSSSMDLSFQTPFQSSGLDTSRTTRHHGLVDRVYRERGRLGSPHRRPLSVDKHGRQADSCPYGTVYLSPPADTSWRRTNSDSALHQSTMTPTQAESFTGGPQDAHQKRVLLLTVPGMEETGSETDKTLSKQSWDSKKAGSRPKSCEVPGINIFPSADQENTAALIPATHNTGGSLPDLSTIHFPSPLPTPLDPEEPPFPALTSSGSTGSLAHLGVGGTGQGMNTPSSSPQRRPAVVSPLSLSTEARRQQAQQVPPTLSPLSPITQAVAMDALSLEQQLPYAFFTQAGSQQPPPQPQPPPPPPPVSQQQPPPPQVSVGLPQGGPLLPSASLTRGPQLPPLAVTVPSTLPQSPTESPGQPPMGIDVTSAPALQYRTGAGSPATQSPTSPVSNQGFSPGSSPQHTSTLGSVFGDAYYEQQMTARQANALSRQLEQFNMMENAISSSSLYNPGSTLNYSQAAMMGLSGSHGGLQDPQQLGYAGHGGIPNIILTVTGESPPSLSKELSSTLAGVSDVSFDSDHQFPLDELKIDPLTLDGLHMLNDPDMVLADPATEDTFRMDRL

Variants of: B1
Conditions: with crtc1_rat Crtc1, Q157S1

| effect of a mutation on the interaction | Variant |
| --- | --- |
| decreasing interaction strength | MDDREDLVYQAKLAEQAERYDEMVESMKKVAGMDVELTVEERNLLSVAYENVIGARRASWRIISSIEQKEENKGGEDKLKMIREYRQMVETELKLICCDILDVLDKHLIPAANTGESKVFYYKMKGDYHRYLAEFATGNDRKEAAENSLVAYKAASDIAMTELPPTHPIRLGLALNFSVFYYEILNSPDRACRLAKAAFDDAIAELDTLSEESYKDSTLIMQLLRDNLTLWTSDMQGDGEEQNKEALQDVEDENQ [K50E] |
